Test results from patent publication US20200283508A1.

Tests used:
human fibrinogen (human) [1] = target: human fibrinogen (human) (UniProt P02671); assay: ELISA, GST-tagged fragment on immobilized Fg
human fibrinogen (human) [2] = target: human fibrinogen (human) (UniProt P02671); assay: ELISA on coated Fg; Km = protein concentration at half of the maximum; R2 0.986
human fibrinogen (human) [3] = target: human fibrinogen (human) (UniProt P02671); assay: ELISA on coated Fg; Km = protein concentration at half of the maximum; R2 0.991
human fibrinogen (human) [4] = target: human fibrinogen (human) (UniProt P02671); assay: ELISA, GST-tagged fragment on immobilized Fg; apparent affinity
human fibrinogen (human) [5] = target: human fibrinogen (human) (UniProt P02671); assay: solid phase binding assay, Efb coated, Fg titrated; apparent KD; Efb coated on the well, fibrinogen titrated
human fibrinogen (human) [6] = target: human fibrinogen (human) (UniProt P02671); assay: ELISA on coated Fg; Km = protein concentration at half of the maximum; R2 0.995
[7] = target: Fibrinogen-D fragment (human) (UniProt P02671); assay: ITC (VP-ITC), peptide titrated into 10 µM Fg-D, one-site model
human fibrinogen (human) [8] = target: human fibrinogen (human) (UniProt P02671); assay: competition ELISA on coated Fg; competitor 4 nM rCoa-C GST fusion
[9] = target: Fibrinogen-D fragment (human) (UniProt P02671); assay: isothermal titration calorimetry, peptide into 10 µM Fg-D, one-site model
[10] = target: Fibrinogen-D fragment (human) (UniProt P02671); assay: ITC (VP-ITC), fit box Model: OneSites beside the isotherm; unit not given
[11] = target: Fibrinogen-D fragment (human) (UniProt P02671); assay: ITC (VP-ITC), fit box Model: OneSites beside the isotherm
human fibrinogen (human) [12] = target: human fibrinogen (human) (UniProt P02671); assay: competition ELISA on coated Fg; competitor 2 nM rEfb-N GST fusion
human fibrinogen (human) [13] = target: human fibrinogen (human) (UniProt P02671); assay: competition ELISA on coated Fg; competitor 2 nM rCoa-C GST fusion

human fibrinogen (human), sequence (P02671 20-629 limits assumed, form in doubt, chain 1 of 3): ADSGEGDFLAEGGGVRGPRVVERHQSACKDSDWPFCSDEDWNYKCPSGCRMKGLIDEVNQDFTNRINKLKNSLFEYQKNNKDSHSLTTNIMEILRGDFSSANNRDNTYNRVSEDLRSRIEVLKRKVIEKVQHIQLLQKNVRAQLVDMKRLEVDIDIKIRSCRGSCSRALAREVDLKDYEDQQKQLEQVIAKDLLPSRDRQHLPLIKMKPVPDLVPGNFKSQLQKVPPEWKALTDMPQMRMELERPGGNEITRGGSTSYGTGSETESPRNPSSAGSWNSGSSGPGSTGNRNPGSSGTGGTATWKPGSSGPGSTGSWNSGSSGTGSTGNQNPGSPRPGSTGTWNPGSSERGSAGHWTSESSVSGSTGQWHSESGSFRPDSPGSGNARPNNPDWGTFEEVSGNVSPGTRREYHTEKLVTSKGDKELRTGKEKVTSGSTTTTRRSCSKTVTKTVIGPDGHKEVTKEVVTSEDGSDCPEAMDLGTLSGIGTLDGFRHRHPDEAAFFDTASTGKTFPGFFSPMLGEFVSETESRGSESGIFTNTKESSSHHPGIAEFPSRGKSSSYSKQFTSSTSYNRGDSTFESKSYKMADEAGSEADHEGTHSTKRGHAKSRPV
human fibrinogen (human), sequence (P02675 31-491 limits assumed, form in doubt, chain 2 of 3, further chain): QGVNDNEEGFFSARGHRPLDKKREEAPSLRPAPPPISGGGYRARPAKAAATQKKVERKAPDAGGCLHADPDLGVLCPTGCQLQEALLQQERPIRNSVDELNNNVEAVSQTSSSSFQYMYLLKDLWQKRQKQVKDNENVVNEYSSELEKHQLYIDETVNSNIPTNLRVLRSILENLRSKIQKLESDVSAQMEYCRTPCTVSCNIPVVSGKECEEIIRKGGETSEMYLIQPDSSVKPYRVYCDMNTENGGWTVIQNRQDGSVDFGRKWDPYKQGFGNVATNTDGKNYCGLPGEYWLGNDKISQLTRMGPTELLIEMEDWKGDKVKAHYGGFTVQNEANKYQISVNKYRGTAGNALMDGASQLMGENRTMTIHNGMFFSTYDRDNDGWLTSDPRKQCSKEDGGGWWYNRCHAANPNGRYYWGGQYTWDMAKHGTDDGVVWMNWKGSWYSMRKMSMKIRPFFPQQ
human fibrinogen (human), sequence (P02679 27-453 limits assumed, form in doubt, chain 3 of 3, further chain): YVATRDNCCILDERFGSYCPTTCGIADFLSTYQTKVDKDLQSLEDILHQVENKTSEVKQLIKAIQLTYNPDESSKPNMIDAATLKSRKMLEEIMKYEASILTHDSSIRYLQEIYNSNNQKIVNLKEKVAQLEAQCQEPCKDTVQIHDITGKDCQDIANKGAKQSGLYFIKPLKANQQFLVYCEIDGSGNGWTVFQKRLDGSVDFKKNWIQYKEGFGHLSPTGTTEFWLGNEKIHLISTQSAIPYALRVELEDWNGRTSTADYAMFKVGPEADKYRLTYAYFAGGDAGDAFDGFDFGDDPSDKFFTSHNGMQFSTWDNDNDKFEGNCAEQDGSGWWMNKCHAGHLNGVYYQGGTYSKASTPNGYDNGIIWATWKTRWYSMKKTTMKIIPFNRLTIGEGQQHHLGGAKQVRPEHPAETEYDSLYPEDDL
Fibrinogen-D fragment (human), sequence (P02671 130-216 limits assumed, chain 1 of 3): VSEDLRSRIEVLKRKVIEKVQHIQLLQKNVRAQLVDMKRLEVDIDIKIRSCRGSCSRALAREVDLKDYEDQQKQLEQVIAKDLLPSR
Fibrinogen-D fragment (human), sequence (P02675 164-491 limits assumed, chain 2 of 3, further chain): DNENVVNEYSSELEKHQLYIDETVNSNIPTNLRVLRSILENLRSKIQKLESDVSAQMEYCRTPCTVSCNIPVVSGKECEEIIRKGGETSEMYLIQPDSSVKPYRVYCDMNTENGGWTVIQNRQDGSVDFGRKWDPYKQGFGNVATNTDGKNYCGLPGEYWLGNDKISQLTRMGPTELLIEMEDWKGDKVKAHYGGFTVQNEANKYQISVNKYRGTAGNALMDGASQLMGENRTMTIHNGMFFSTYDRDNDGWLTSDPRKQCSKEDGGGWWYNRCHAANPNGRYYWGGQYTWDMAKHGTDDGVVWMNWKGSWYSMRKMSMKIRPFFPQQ
Fibrinogen-D fragment (human), sequence (P02679 114-432 limits assumed, chain 3 of 3, further chain): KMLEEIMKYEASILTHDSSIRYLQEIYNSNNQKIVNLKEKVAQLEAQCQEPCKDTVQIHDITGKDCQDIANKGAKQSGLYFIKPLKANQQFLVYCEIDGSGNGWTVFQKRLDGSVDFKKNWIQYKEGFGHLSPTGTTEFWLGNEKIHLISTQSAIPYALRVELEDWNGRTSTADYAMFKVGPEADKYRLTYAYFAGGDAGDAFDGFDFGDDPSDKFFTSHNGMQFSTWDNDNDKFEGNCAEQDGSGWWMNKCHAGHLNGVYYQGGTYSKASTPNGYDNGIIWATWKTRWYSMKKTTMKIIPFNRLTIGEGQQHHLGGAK

Substance: Coa-C (Coa 311-636) (from UniProt P08515 1-218)
- EC50 (human fibrinogen (human) [1]): 7.5 nM

Substance: Coa-F (Coa 311-505) (from UniProt P08515 1-218)
- Km (human fibrinogen (human) [2]): 3.2 nM

Substance: Coa-N (Coa 27-310) (from UniProt P08515 1-218)
- Km (human fibrinogen (human) [3]): 204 nM

Substance: Coa-R (Coa 506-636)
- Kd (human fibrinogen (human) [4]): 0.8 nM

Substance: Extracellular fibrinogen binding protein (Efb), full-length secreted form 30-165, His-tagged (from UniProt A6QG59 30-165)
- Kd (human fibrinogen (human) [5]): 1 nM

Substance: recombinant Coagulase, Coa (27-636) (from UniProt P08515 1-218)
- Km (human fibrinogen (human) [6]): 8.9 nM

Substance: sCoa-RI3 (Coa 502-528) (peptide)
- N (binding ratio) [7]: 0.9
- IC50 (read off the curve) (human fibrinogen (human) [8]): 10000 nM
- Kd [9]: 124 nM

Substance: sCoa-RV1 (Coa 610-636) (peptide)
- ΔH [10]: -39800
- ΔS [10]: -101
- N (binding ratio) [7]: 0.68
- IC50 (read off the curve) (human fibrinogen (human) [8]): 10000 nM
- Kd [9]: 139 nM
- N (binding ratio) [11]: 0.679

Substance: synthetic peptide Coa-O (Coa 474-505)
- IC50 (read off the curve) (human fibrinogen (human) [12]): 2000 to 3000 nM
- IC50 (read off the curve) (human fibrinogen (human) [13]): 9000 nM

Substance: synthetic peptide Coa-RI (Coa 506-532)
- binding stoichiometry [9]: 0.93
- IC50 (read off the curve) (human fibrinogen (human) [13]): 3000 nM
